This note sets out measurements from article PMC3931628.

The target in assay [1] is nectin-1 (human (endogenous in primary tonsil epithelial cells)) (UniProt Q15223).
For assay [2] the target is unchanged. This is another data set of the same source.

UniProt Q15223, sequence (Q15223 31-517): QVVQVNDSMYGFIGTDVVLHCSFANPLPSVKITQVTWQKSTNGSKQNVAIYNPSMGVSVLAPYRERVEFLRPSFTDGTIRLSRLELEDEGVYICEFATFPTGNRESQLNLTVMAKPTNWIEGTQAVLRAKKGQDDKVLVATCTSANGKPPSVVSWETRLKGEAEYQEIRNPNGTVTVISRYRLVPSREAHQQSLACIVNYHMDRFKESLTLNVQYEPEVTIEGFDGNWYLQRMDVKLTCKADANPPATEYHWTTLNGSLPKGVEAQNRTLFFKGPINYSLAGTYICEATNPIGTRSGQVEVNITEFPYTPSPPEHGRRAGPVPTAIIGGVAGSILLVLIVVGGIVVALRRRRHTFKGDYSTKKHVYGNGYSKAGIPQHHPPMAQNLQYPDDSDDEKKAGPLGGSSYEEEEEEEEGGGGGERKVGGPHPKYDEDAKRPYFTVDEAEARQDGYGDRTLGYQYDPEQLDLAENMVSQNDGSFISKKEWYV

“truncated form of HSV-1 gD ectodomain gD(306t) (domain or fragment)”: in assay [1], the HSV-1 plaque numbers in polarized tonsil cells treated with active tat/gp120; reduction by anti-gD antibodies (10 µg/ml) is 30%; the HSV-1 plaque numbers in polarized tonsil cells treated with active tat/gp120; reduction by anti-nectin-1 antibodies (10 µg/ml) worked out at 40%; the HSV-1 plaque numbers in polarized tonsil cells treated with active tat/gp120; reduction by the combination of anti-gD and anti-nectin-1 antibodies was 60%; the HSV-1 plaque size (infected cells per plaque, cell-to-cell spread) in polarized tonsil cells treated with active tat/gp120; reduction by anti-gD antibodies (10 µg/ml) was found to be 60%. In assay [1], the HSV-1 plaque size (infected cells per plaque, cell-to-cell spread) in polarized tonsil cells treated with active tat/gp120; reduction by anti-nectin-1 antibodies (10 µg/ml) turned out to be 50%; the HSV-1 plaque size (infected cells per plaque, cell-to-cell spread) in polarized tonsil cells treated with active tat/gp120; reduction by the combination of anti-nectin-1 and anti-gD antibodies amounted to 70%. Moreover, the HSV-1 infection (percent of infected cells, 24 h) of polarized tonsil cells treated with active tat/gp120 or HIV virions; reduction by preincubation with anti-nectin-1 antibody CK-8 (10 µg/ml) in assay [2] is 70%.
